Consider two substances from patent US20220062373A1.

For the assay, the target named is Endogenous murine CD206 on M2-polarized bone marrow-derived macrophages (mouse) (UniProt Q61830). Kind of assay: LC-MS/MS proteomics of CD206 complexes pulled down with biotinylated RP-182 from M2 BMDMs.
Chain of Endogenous murine CD206 on M2-polarized bone marrow-derived macrophages (mouse) (Q61830 20-1456): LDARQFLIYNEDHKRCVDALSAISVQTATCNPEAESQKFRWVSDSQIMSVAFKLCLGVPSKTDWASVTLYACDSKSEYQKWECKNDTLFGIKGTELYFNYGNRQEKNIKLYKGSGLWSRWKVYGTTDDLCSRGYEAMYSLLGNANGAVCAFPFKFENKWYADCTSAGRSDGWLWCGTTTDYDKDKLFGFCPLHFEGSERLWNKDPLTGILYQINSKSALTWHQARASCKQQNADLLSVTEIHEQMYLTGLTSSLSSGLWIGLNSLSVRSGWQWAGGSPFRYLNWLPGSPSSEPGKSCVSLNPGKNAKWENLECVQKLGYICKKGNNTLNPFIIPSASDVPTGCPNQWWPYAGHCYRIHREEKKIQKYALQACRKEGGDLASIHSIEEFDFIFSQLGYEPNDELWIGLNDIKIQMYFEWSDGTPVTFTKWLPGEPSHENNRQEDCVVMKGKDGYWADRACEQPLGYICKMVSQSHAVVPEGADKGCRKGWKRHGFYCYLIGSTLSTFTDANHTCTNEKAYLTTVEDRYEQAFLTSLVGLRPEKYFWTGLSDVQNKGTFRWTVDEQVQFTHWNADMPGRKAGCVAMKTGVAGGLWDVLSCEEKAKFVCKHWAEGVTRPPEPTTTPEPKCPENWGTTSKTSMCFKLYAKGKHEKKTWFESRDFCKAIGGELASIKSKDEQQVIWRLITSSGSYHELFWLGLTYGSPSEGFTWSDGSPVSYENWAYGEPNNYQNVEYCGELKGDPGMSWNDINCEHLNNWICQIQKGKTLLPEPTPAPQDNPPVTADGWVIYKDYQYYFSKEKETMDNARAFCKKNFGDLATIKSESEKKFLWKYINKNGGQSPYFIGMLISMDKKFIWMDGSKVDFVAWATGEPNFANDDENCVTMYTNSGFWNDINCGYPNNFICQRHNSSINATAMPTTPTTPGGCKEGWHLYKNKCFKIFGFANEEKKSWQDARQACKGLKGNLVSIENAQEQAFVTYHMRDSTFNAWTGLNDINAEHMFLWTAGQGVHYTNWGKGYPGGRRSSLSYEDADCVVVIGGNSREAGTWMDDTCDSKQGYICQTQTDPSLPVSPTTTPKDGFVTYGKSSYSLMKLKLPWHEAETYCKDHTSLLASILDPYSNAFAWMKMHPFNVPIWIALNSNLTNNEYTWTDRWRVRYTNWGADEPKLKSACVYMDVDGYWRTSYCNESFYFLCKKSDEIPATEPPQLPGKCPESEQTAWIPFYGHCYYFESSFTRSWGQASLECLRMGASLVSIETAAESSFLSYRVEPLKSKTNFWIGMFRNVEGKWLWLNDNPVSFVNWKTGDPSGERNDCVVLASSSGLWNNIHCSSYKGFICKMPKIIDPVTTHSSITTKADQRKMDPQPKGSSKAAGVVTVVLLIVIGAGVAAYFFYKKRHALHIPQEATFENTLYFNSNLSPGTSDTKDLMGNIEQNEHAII

“IQ motif containing GTPase activating protein 1 (IQGAP1) (from UniProt Q9JKF1 2-1657)” returned a fold enriched in CD206 complexes against control of 9 fold.
For “IQ motif containing GTPase activating protein 2 (IQGAP2) (from UniProt Q3UQ44 1-1575)”, the fold enriched in CD206 complexes against control worked out at 76 fold.
